Data: paper PMC9206684

Assays:
[1] = biological target: GST-tagged IGF2BP2 (human), Q9Y6M1; test: cross-linking; cell suspension with 1.25 mM DSS, 30 min, 37 °C; nondenaturing lysis and PAGE, Western blot; monomer 65 kDa, homodimer 130 kDa; HEK293T (GST-IGF2BP2) and OVCAR3/CAOV3 (endogenous, with Ct-OATP1B3 or IGF2BP2 knockdown or overexpression); conditions: remark: other sources report otherwise
[2] = biological target: insulin-like growth factor 2 mRNA-binding protein 2 (IGF2BP2), endogenous (human (endogenous in CAOV3 and OVCAR3)), Q9Y6M1; test: as above; conditions: remark: other sources report otherwise

stoichiometry N [1]	stoichiometry N [2]	Binder
2	–	GST-tagged IGF2BP2, Q9Y6M1 1-599 (natural protein) MMNKLYIGNLSPAVTADDLRQLFGDRKLPLAGQVLLKSGYAFVDYPDQNWAIRAIETLSGKVELHGKIMEVDYSVSKKLRSRKIQIRNIPPHLQWEVLDGLLAQYGTVENVEQVNTDTETAVVNVTYATREEAKIAMEKLSGHQFENYSFKISYIPDEEVSSPSPPQRAQRGDHSSREQGHAPGGTSQARQIDFPLRILVPTQFVGAIIGKEGLTIKNITKQTQSRVDIHRKENSGAAEKPVTIHATPEGTSEACRMILEIMQKEADETKLAEEIPLKILAHNGLVGRLIGKEGRNLKKIEHETGTKITISSLQDLSIYNPERTITVKGTVEACASAEIEIMKKLREAFENDMLAVNQQANLIPGLNLSALGIFSTGLSVLSPPAGPRGAPPAAPYHPFTTHSGYFSSLYPHHQFGPFPHHHSYPEQEIVNLFIPTQAVGAIIGKKGAHIKQLARFAGASIKIAPAEGPDVSERMVIITGPPEAQFKAQGRIFGKLKEENFFNPKEEVKLEAHIRVPSSTAGRVIGKGGKTVNELQNLTSAEVIVPRDQTPDENEEVIVRIIGHFFASQTAQRKIREIVQQVKQQEQKYPQGVASQRSK
–	2	insulin-like growth factor 2 mRNA-binding protein 2 (IGF2BP2), endogenous, Q9Y6M1 1-599 (natural protein) MMNKLYIGNLSPAVTADDLRQLFGDRKLPLAGQVLLKSGYAFVDYPDQNWAIRAIETLSGKVELHGKIMEVDYSVSKKLRSRKIQIRNIPPHLQWEVLDGLLAQYGTVENVEQVNTDTETAVVNVTYATREEAKIAMEKLSGHQFENYSFKISYIPDEEVSSPSPPQRAQRGDHSSREQGHAPGGTSQARQIDFPLRILVPTQFVGAIIGKEGLTIKNITKQTQSRVDIHRKENSGAAEKPVTIHATPEGTSEACRMILEIMQKEADETKLAEEIPLKILAHNGLVGRLIGKEGRNLKKIEHETGTKITISSLQDLSIYNPERTITVKGTVEACASAEIEIMKKLREAFENDMLAVNQQANLIPGLNLSALGIFSTGLSVLSPPAGPRGAPPAAPYHPFTTHSGYFSSLYPHHQFGPFPHHHSYPEQEIVNLFIPTQAVGAIIGKKGAHIKQLARFAGASIKIAPAEGPDVSERMVIITGPPEAQFKAQGRIFGKLKEENFFNPKEEVKLEAHIRVPSSTAGRVIGKGGKTVNELQNLTSAEVIVPRDQTPDENEEVIVRIIGHFFASQTAQRKIREIVQQVKQQEQKYPQGVASQRSK
